Where no end group is shown, it is not given here.

We go through 31 molecules from patent US20260242478A1 (published 2026).

Assay [1] concerns the target T1, Anti-PSMA Fab (biotinylated (site not stated)).
T1 construct: The biotinylated PSMA Fab was captured on neutravidin coated plates for the phage ELISA; also called 006 PSMA Fab
In words: phage ELISA; biotinylated anti-PSMA Fab on neutravidin plate, anti-M13-HRP detection, no PSMA antigen.

In assay [2] the target is T1, Anti-PSMA Fab. In words: phage ELISA; captured anti-PSMA Fab pre-incubated with PSMA antigen as competitor.
Experimental: (§1) Clonal phage were harvested as crude supernatants and screened via standard ELISAs. […] Prior to the addition of clonal phage. wells were incubated with blocking buffer and PSMA antigen or blocking buffer alone. Without washing or aspirating, clonal phage supernatants were then added to the wells and incubated for a short time. Wells were then washed followed by detection of bound phage using a horse radish conjugated anti-M13 antibody.
Assay [3] deals with T2, Anti-PSMA Fab (006 PSMA Fab) (biotinylated (site not stated)).
T2 construct: Biotinylated PSMA Fab captured on neutravidin coated plates
In words: clonal phage ELISA on PSMA Fab pre-incubated with PSMA antigen as competitor, anti-M13 HRP detection.

In assay [4] the target is T2, Anti-PSMA Fab (006 PSMA Fab). Nature of the assay: clonal phage ELISA, biotinylated PSMA Fab on neutravidin plates, anti-M13 HRP detection.
Experimental: as §1
The target in assay [5] is T3, PSMA Fab (biotinylated (site not stated)).
T3 construct: also called Anti-PSMA Fab; 006 PSMA Fab
In words: phage ELISA; PSMA Fab on plate pre-incubated with PSMA antigen as competitor, anti-M13 HRP detection.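 Also: crude clonal phage supernatants added to Fab-coated wells still holding PSMA antigen in blocking buffer, with bound phage as read-out.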

For assay [6], the target named is T3, PSMA Fab. In words: phage ELISA; biotinylated PSMA Fab on neutravidin plate, clonal phage supernatant, anti-M13 HRP detection.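 Also: wells preincubated with PSMA antigen in blocking buffer or with blocking buffer only before clonal phage were added for a short incubation, then bound phage detected.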
Experimental: as §1

B1: Phage-2985 (peptide)
peptide: EEVYCVPKWMCLGF
notes: It was tested as crude clonal phage supernatant; also called Peptide-180 library clone
Regarding B1, the “Phage binding ELISA signal, Anti-PSMA Fab” value with Anti-PSMA Fab [1] turned out to be 2.23. Further, in the assay with Anti-PSMA Fab [2], the “Phage binding ELISA signal, Anti-PSMA Fab with PSMA antigen” value was 0.0871.

B2: Phage-2984 (peptide)
peptide: AGIRCVPEWMCLGF
notes: as for B1
For the molecule B2, the “Phage binding ELISA signal, Anti-PSMA Fab” value with Anti-PSMA Fab [1] is 2.23. Also, the “Phage binding ELISA signal, Anti-PSMA Fab with PSMA antigen” value in the assay with Anti-PSMA Fab [2] is 0.0784.

B3: Phage-2987 (peptide)
peptide: LLVRCQPEWMCVGF
notes: as for B1
Take B3: in the assay with Anti-PSMA Fab [1], the “Phage binding ELISA signal, Anti-PSMA Fab” value turned out to be 2.23. In addition, the “Phage binding ELISA signal, Anti-PSMA Fab with PSMA antigen” value with Anti-PSMA Fab [2] was 0.14.

B4: Phage-2988 (peptide)
peptide: FTAYCKPAWMCQGL
notes: as for B1
With B4, the “Phage binding ELISA signal, Anti-PSMA Fab” value with Anti-PSMA Fab [1] is 2.22. The “Phage binding ELISA signal, Anti-PSMA Fab with PSMA antigen” value with Anti-PSMA Fab [2] turned out to be 0.0917.

B5: Phage-3005 (peptide)
peptide: ALPMCEPFWMCTGF
As to B5, the “Phage binding ELISA signal, Anti-PSMA Fab with PSMA antigen” value in assay [3] turned out to be 0.0628. The “Phage binding ELISA signal, Anti-PSMA Fab” value in assay [4] stood at 2.21.

B6: Phage-2995 (peptide)
peptide: AIAHCIPQWMCSGF
As for B6, the “phage binding ELISA signal (Anti-PSMA Fab, PSMA antigen present)” value in the assay with PSMA Fab [5] is 0.0878. Further, in the assay with PSMA Fab [6], the “Phage binding ELISA signal, Anti-PSMA Fab” value was 2.22.

B7: Phage-2996 (peptide)
peptide: PEALCMPPWMCHGF
Take B7: the “phage binding ELISA signal (Anti-PSMA Fab, PSMA antigen present)” value in the assay with PSMA Fab [5] was determined as 0.0657. The “Phage binding ELISA signal, Anti-PSMA Fab” value in the assay with PSMA Fab [6] was determined as 2.22.

B8: Phage-2980 (peptide)
peptide: VEHWCRPEWMCAGF
notes: as for B1
On to B8, for which the “Phage binding ELISA signal, Anti-PSMA Fab” value with Anti-PSMA Fab [1] is 2.24. The “Phage binding ELISA signal, Anti-PSMA Fab with PSMA antigen” value with Anti-PSMA Fab [2] is 0.0893.

B9: Phage-2994 (peptide)
peptide: LQSMCRPAWMCTGF
As for B9, in the assay with PSMA Fab [5], the “phage binding ELISA signal (Anti-PSMA Fab, PSMA antigen present)” value is 0.0839. Further, the “Phage binding ELISA signal, Anti-PSMA Fab” value with PSMA Fab [6] came out at 2.22.

B10: Phage-3002 (peptide)
peptide: YQLLCKPEWMCVGF
Take B10: the “phage binding ELISA signal (Anti-PSMA Fab, PSMA antigen present)” value in the assay with PSMA Fab [5] worked out at 0.0672. The “Phage binding ELISA signal, Anti-PSMA Fab” value in the assay with PSMA Fab [6] came out at 2.21.

B11: Phage-2990 (peptide)
peptide: TTIMCEPTWMCTGF
modifications: cysteine pairing not given here; also: peptide displayed as fusion to phage pIII
Regarding B11, the “phage binding ELISA signal (Anti-PSMA Fab, PSMA antigen present)” value in the assay with PSMA Fab [5] is 0.0683. In the assay with PSMA Fab [6], the “Phage binding ELISA signal, Anti-PSMA Fab” value turned out to be 2.22.

B12: Phage-3000 (peptide)
peptide: EIPVCRPAWMCLGL
Take B12: the “phage binding ELISA signal (Anti-PSMA Fab, PSMA antigen present)” value with PSMA Fab [5] was found to be 0.0698. Moreover, the “Phage binding ELISA signal, Anti-PSMA Fab” value with PSMA Fab [6] amounted to 2.22.

B13: Phage-2986 (peptide)
peptide: SQPMCIPVWMCRGF
notes: as for B1
Regarding B13, the “Phage binding ELISA signal, Anti-PSMA Fab” value in the assay with Anti-PSMA Fab [1] stood at 2.23. For the same molecule, the “Phage binding ELISA signal, Anti-PSMA Fab with PSMA antigen” value in the assay with Anti-PSMA Fab [2] came out at 0.109.

B14: Phage-2991 (peptide)
peptide: FHVRCVPEWMCWGF
Regarding B14, in the assay with PSMA Fab [5], the “phage binding ELISA signal (Anti-PSMA Fab, PSMA antigen present)” value came out at 0.153. For the same molecule, in the assay with PSMA Fab [6], the “Phage binding ELISA signal, Anti-PSMA Fab” value turned out to be 2.22.

B15: Phage-2982 (peptide)
peptide: PMHACIPMWMCAGF
notes: as for B1
For B15, in the assay with Anti-PSMA Fab [1], the “Phage binding ELISA signal, Anti-PSMA Fab” value was determined as 2.23. For the same molecule, the “Phage binding ELISA signal, Anti-PSMA Fab with PSMA antigen” value with Anti-PSMA Fab [2] stood at 0.114.

B16: Phage-3001 (peptide)
peptide: MMPLCMPTWMCEGF
For B16, in the assay with PSMA Fab [5], the “phage binding ELISA signal (Anti-PSMA Fab, PSMA antigen present)” value came out at 0.075. Also, in the assay with PSMA Fab [6], the “Phage binding ELISA signal, Anti-PSMA Fab” value was determined as 2.22.

B17: Phage-3003 (peptide)
peptide: MLPWCVPHWMCDGF
Consider B17, for which the “phage binding ELISA signal (Anti-PSMA Fab, PSMA antigen present)” value in the assay with PSMA Fab [5] was 0.132. For the same molecule, the “Phage binding ELISA signal, Anti-PSMA Fab” value with PSMA Fab [6] amounted to 2.21.

B18: Phage-2983 (peptide)
peptide: PERMCRPLWMCEGF
notes: as for B1
B18: the “Phage binding ELISA signal, Anti-PSMA Fab” value in the assay with Anti-PSMA Fab [1] came out at 2.23. The “Phage binding ELISA signal, Anti-PSMA Fab with PSMA antigen” value in the assay with Anti-PSMA Fab [2] stood at 0.11.

B19: Phage-2993 (peptide)
peptide: LAHMCIPAWMCAGL
modifications: cysteine pairing not given here; also: peptide displayed as fusion to phage pIII
For the molecule B19, in the assay with PSMA Fab [5], the “phage binding ELISA signal (Anti-PSMA Fab, PSMA antigen present)” value was determined as 0.104. In the assay with PSMA Fab [6], the “Phage binding ELISA signal, Anti-PSMA Fab” value worked out at 2.22.

B20: Phage-2989 (peptide)
peptide: TVVMCKPSWMCEGF
notes: as for B1
Turning to B20, the “Phage binding ELISA signal, Anti-PSMA Fab” value with Anti-PSMA Fab [1] amounted to 2.22. Besides, in the assay with Anti-PSMA Fab [2], the “Phage binding ELISA signal, Anti-PSMA Fab with PSMA antigen” value was 0.083.

B21: Phage-2999 (peptide)
peptide: IARMCVPEWMCQEL
Regarding B21, in the assay with PSMA Fab [5], the “phage binding ELISA signal (Anti-PSMA Fab, PSMA antigen present)” value is 0.107. In addition, the “Phage binding ELISA signal, Anti-PSMA Fab” value in the assay with PSMA Fab [6] amounted to 2.22.

B22: Phage-3004 (peptide)
peptide: VEPMCRPAWMCLGF
For B22, the “Phage binding ELISA signal, Anti-PSMA Fab with PSMA antigen” value in assay [3] was 0.0882. Besides, the “Phage binding ELISA signal, Anti-PSMA Fab” value in assay [4] turned out to be 2.21.

B23: Phage-2981 (peptide)
peptide: DDRMCIPSWMCSGL
notes: as for B1
Regarding B23, the “Phage binding ELISA signal, Anti-PSMA Fab” value with Anti-PSMA Fab [1] worked out at 2.24. Besides, the “Phage binding ELISA signal, Anti-PSMA Fab with PSMA antigen” value in the assay with Anti-PSMA Fab [2] was found to be 0.0851.

B24: Phage-3006 (peptide)
peptide: VMVECRPAWMCNGF
In the case of B24, in assay [3], the “Phage binding ELISA signal, Anti-PSMA Fab with PSMA antigen” value was 0.0636. Also, the “Phage binding ELISA signal, Anti-PSMA Fab” value in assay [4] was found to be 2.21.

B25: Phage-3008 (peptide)
peptide: SEVMCVPQWMCNGF
As for B25, the “Phage binding ELISA signal, Anti-PSMA Fab with PSMA antigen” value in assay [3] is 0.0981. In addition, the “Phage binding ELISA signal, Anti-PSMA Fab” value in assay [4] was 2.21.

B26: Phage-3010 (peptide)
peptide: GMPYCVPEWMCSWL
Regarding B26, in assay [3], the “Phage binding ELISA signal, Anti-PSMA Fab with PSMA antigen” value was 0.0827. Besides, the “Phage binding ELISA signal, Anti-PSMA Fab” value in assay [4] is 2.21.

B27: Phage-2998 (peptide)
peptide: VVAHCVPSWMCTGF
On to B27, for which, in the assay with PSMA Fab [5], the “phage binding ELISA signal (Anti-PSMA Fab, PSMA antigen present)” value worked out at 0.0901. For the same molecule, in the assay with PSMA Fab [6], the “Phage binding ELISA signal, Anti-PSMA Fab” value worked out at 2.22.

B28: Phage-3009 (peptide)
peptide: WWPSCVPEWMCAGL
With B28, in assay [3], the “Phage binding ELISA signal, Anti-PSMA Fab with PSMA antigen” value was 0.129. Also, in assay [4], the “Phage binding ELISA signal, Anti-PSMA Fab” value amounted to 2.21.

B29: Phage-3007 (peptide)
peptide: MYHMCRPSWMCEGF
Consider B29, for which the “Phage binding ELISA signal, Anti-PSMA Fab with PSMA antigen” value in assay [3] was 0.142. Moreover, the “Phage binding ELISA signal, Anti-PSMA Fab” value in assay [4] came to 2.21.

B30: Phage-2997 (peptide)
peptide: MSPRCVPMWMCDWL
In the case of B30, the “phage binding ELISA signal (Anti-PSMA Fab, PSMA antigen present)” value in the assay with PSMA Fab [5] was 0.0821. The “Phage binding ELISA signal, Anti-PSMA Fab” value with PSMA Fab [6] came to 2.22.

B31: Phage-2992 (peptide)
peptide: YEIRCEPKWMCMGF
Regarding B31, in the assay with PSMA Fab [5], the “phage binding ELISA signal (Anti-PSMA Fab, PSMA antigen present)” value was 0.0735. Further, the “Phage binding ELISA signal, Anti-PSMA Fab” value with PSMA Fab [6] was determined as 2.22.
